The record followed here is PMC12112590.

Sequences and labels used below:
B1: full-length hNDF mutant MT1 (natural protein)
chain: MAAVSLRLGDLVWGKLGRYPPWPGKIVNPPKDLKKPRGKKCFFVKFFGTEDHAWIKVEQLKPYHAHKEEMIKINKGKRFQQAVDAVEEFLRRAKGKDQTSSHNSSDDKNRRNSSEERSRPNSGDEKRKLSLSEGKVKKNMAAAAARVSSGSSERGSKSPLKRAQEQSPRKRGRPPKDEKDLTIPESSTVKGMMAGPMAAFKWQPTASEPVKDADPHFHHFLLSQTEKPAVCYQAITKKLKICEEETGSTSIQAADSTAVNGSITPTDKKIGFLGLGLMGSGIVSNLLKMGHTVTVWNRTAEKCDLFIQEGARLGRTPAEVVSTCDITFACVSDPKAAKDLVLGPSGVLQGIRPGKCYVDMSTVDADTVTELAQVIVSRGGRFLEAPVSGNQQLSNDGMLVILAAGDRGLYEDCSSCFQAMGKTSFFLGEVGNAAKMMLIVNMVQGSFMATIAEGLTLAQVTGQSQQTLLDILNQGQLASIFLDQKCQNILQGNFKPDFYLKYIQKDLRLAIALGDAVNHPTPMAAAANEVYKRAKALDQSDNDMSAVYRAYIH
B2: full-length hNDF mutant MT3 (natural protein)
chain: MAAVSLRLGDLVWGKLGRYPPWPGKIVNPPKDLKKPRGKKCFFVKFFGTEDHAWIKVEQLKPYHAHKEEMIKINKGKRFQQAVDAVEEFLRRAKGKDQTSSHNSSDDKNRRNSSEERSRPNSGDEKRKLSLSEGKVKKNMGEGKKRVSSGAAAAASKSPLKRAQEQSPRKRGRPPKDEKDLTIPESSTVKGMMAGPMAAFKWQPTASEPVKDADPHFHHFLLSQTEKPAVCYQAITKKLKICEEETGSTSIQAADSTAVNGSITPTDKKIGFLGLGLMGSGIVSNLLKMGHTVTVWNRTAEKCDLFIQEGARLGRTPAEVVSTCDITFACVSDPKAAKDLVLGPSGVLQGIRPGKCYVDMSTVDADTVTELAQVIVSRGGRFLEAPVSGNQQLSNDGMLVILAAGDRGLYEDCSSCFQAMGKTSFFLGEVGNAAKMMLIVNMVQGSFMATIAEGLTLAQVTGQSQQTLLDILNQGQLASIFLDQKCQNILQGNFKPDFYLKYIQKDLRLAIALGDAVNHPTPMAAAANEVYKRAKALDQSDNDMSAVYRAYIH
B3: full-length hNDF mutant MT4 (residues 156–160) (natural protein)
chain: MAAVSLRLGDLVWGKLGRYPPWPGKIVNPPKDLKKPRGKKCFFVKFFGTEDHAWIKVEQLKPYHAHKEEMIKINKGKRFQQAVDAVEEFLRRAKGKDQTSSHNSSDDKNRRNSSEERSRPNSGDEKRKLSLSEGKVKKNMGEGKKRVSSGSSERGAAAAAKRAQEQSPRKRGRPPKDEKDLTIPESSTVKGMMAGPMAAFKWQPTASEPVKDADPHFHHFLLSQTEKPAVCYQAITKKLKICEEETGSTSIQAADSTAVNGSITPTDKKIGFLGLGLMGSGIVSNLLKMGHTVTVWNRTAEKCDLFIQEGARLGRTPAEVVSTCDITFACVSDPKAAKDLVLGPSGVLQGIRPGKCYVDMSTVDADTVTELAQVIVSRGGRFLEAPVSGNQQLSNDGMLVILAAGDRGLYEDCSSCFQAMGKTSFFLGEVGNAAKMMLIVNMVQGSFMATIAEGLTLAQVTGQSQQTLLDILNQGQLASIFLDQKCQNILQGNFKPDFYLKYIQKDLRLAIALGDAVNHPTPMAAAANEVYKRAKALDQSDNDMSAVYRAYIH
B4: full-length hNDF mutant MT2 (residues 146–150) (natural protein)
chain: MAAVSLRLGDLVWGKLGRYPPWPGKIVNPPKDLKKPRGKKCFFVKFFGTEDHAWIKVEQLKPYHAHKEEMIKINKGKRFQQAVDAVEEFLRRAKGKDQTSSHNSSDDKNRRNSSEERSRPNSGDEKRKLSLSEGKVKKNMGEGKKAAAAASSERGSKSPLKRAQEQSPRKRGRPPKDEKDLTIPESSTVKGMMAGPMAAFKWQPTASEPVKDADPHFHHFLLSQTEKPAVCYQAITKKLKICEEETGSTSIQAADSTAVNGSITPTDKKIGFLGLGLMGSGIVSNLLKMGHTVTVWNRTAEKCDLFIQEGARLGRTPAEVVSTCDITFACVSDPKAAKDLVLGPSGVLQGIRPGKCYVDMSTVDADTVTELAQVIVSRGGRFLEAPVSGNQQLSNDGMLVILAAGDRGLYEDCSSCFQAMGKTSFFLGEVGNAAKMMLIVNMVQGSFMATIAEGLTLAQVTGQSQQTLLDILNQGQLASIFLDQKCQNILQGNFKPDFYLKYIQKDLRLAIALGDAVNHPTPMAAAANEVYKRAKALDQSDNDMSAVYRAYIH

The assay addresses S. cerevisiae RNA Polymerase II (Pol II) (S. cerevisiae) (UniProt P04050).
Regarding B1, the transcription stimulation with calf thymus DNA and yeast Pol II ([α-32P]CTP incorporation), against wild-type hNDF was found to be 50 % reduction. The molecule B2 returned a transcription stimulation with calf thymus DNA and yeast Pol II ([α-32P]CTP incorporation), against wild-type hNDF of 50 % reduction.

In turn, B3 had a transcription stimulation with calf thymus DNA and yeast Pol II ([α-32P]CTP incorporation), against wild-type hNDF of 50 % reduction.

With B4, the transcription stimulation with calf thymus DNA and yeast Pol II ([α-32P]CTP incorporation), against wild-type hNDF turned out to be 50 % reduction.
